Values quoted from earlier work, collected in patent publication US7338947B2, “Cyclic derivatives as modulators of chemokine receptor activity” (Bristol-Myers Squibb Co., priority 2003, dated 2008).

Test system: MCP-1 expression in peripheral blood mononuclear cells
Settings: human multiple sclerosis, effective therapy

B1: interferon b-1b: interferon b-1b, effective therapy in human multiple sclerosis (protein, UniProt P01574 22-187, looked up, variant C17S)
Interferon beta: MSYNLLGFLQRSSNFQSQKLLWQLNGRLEYCLKDRMNFDIPEEIKQLQQFQKEDAALTIYEMLQNIFAIFRQDSSSTGWNETIVENLLANVYHQINHLKTVLEEKLEKEDFTRGKLMSSLHLKRYYGRILHYLKAKEYSHCAWTIVRVEILRNFYFINRLTGYLRN
modifications: interferon beta-1b
- MCP-1 expression in peripheral blood mononuclear cells: reduces MCP-1 expression
